From paper PMC8528238 (Nature, 2021)

Biological target: batCoV-SHC014 S-2P (Bat SARS-like coronavirus RsSHC014, UniProt U5WLK5, stabilised)
Experiment: ELISA

B1: DH1047, cross-neutralizing RBD antibody (antibody, V domains shown)
VH: QVQLVQSGAEVKKPGASVQVSCQASANTFTNHYIHWVRQAPGQGLEWMGIIYPTGGNTIYAQGFQGRVTMTRDTSLNTIYLELSSLRSEDTAVYYCARDVRVDDSWSGYDLLSGGTYFDYWGQGTLVTVSS
VL: not shown
  binding result: binds
